# Test results reported in IntAct's records for PubMed 25203555.
# B1: Uncharacterized protein C1322.02 (Schizosaccharomyces pombe (strain ATCC 38366 / 972)), O94542 (parent)
# chain: MIESKGETAPSLNLNDVNVEENDAAQSFAEKVQRFRYQMKVHAAPRQKTLHSFLKKDNANIHDFTKVEKPHIRSSKSKVSYNSITSRVTKYFEEKNNSVDQLHSESLTPLSFGHTIPKKKPLLMTASVSEDSRVRVSKRQFKSKVVHPEIAISIAKRHKPKFPLSDELMNVEPGFHHSNIGCQITPYLWISSFRTNVYYLIGNEGDLLSQQVPSISGELNMLRGVCTRIDDDNRYDIEQAGSCFGMSVFPTSDSGEESFTTLESDPIVNCEHDEKKVADNLLVPQVMCSSNISTFFRSPGGKKLYHYLWKNSNALRISSNDLLEILLKHGVYVSLDTLHSWLQERNVNFEK
# partner: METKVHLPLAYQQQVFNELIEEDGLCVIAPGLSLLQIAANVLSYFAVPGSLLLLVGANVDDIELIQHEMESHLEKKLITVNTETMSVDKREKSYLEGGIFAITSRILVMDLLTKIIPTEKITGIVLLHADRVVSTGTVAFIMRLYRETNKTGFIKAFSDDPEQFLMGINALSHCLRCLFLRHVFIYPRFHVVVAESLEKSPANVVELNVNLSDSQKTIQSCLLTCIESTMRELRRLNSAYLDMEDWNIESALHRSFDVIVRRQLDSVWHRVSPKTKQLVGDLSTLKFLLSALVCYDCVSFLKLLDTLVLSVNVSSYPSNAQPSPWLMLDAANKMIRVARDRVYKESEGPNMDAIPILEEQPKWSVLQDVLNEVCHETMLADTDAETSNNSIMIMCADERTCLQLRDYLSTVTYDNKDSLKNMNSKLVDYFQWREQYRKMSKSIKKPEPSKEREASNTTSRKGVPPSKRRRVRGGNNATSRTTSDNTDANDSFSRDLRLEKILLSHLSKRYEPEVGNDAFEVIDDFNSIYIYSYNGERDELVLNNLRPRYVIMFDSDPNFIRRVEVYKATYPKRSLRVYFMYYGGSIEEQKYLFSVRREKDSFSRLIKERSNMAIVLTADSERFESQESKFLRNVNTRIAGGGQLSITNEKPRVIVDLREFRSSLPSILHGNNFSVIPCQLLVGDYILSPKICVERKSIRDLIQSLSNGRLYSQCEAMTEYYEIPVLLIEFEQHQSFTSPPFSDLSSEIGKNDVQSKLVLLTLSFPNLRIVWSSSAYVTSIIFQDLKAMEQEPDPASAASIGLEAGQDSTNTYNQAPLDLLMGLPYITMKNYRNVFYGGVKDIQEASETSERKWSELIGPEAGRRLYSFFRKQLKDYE
# B2: Uncharacterized protein C1322.02 (Schizosaccharomyces pombe (strain ATCC 38366 / 972)), O94542 (parent)
# chain: B1 chain
# partner: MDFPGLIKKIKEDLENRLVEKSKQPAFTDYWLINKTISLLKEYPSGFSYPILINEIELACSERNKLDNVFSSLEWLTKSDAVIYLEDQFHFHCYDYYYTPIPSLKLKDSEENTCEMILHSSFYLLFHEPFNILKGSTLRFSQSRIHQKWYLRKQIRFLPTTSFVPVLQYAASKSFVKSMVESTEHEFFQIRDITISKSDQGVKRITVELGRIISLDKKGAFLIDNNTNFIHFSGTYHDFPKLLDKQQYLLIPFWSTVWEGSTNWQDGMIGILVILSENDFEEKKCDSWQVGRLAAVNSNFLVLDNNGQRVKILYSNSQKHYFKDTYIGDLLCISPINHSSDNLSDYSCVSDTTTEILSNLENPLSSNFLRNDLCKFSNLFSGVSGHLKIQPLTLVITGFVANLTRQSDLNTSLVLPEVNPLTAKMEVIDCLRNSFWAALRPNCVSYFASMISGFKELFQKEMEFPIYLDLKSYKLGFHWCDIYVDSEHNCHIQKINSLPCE
# Variants of: B1
# Conditions: with rad16_schpo rad16, P36617
row,Variant,effect of a mutation on the interaction
1,MIESKGETAPSLNLNDVNVEENDAAQSFAEKVQRFRYQMKVHAAPRQKTLHSFLKKDNANIHDFTKVEKPHIRSSKSKVSYNSITSRVTKYFEEKNNSVDQLHSESLTPLSFGHTIPKKKPLLMTASVSEDSRVRVSKRQFKSKVVHPEIAISIDKRHKPKFPLSDELMNVAPGFHHSNIGCQITPYLWISSFRTNVYYLIGNEGDLLSQQVPSISGELNMLRGVCTRIDDDNRYDIEQAGSCFGMSVFPTSDSGEESFTTLESDPIVNCEHDEKKVADNLLVPQVMCSSNISTFFRSPGGKKLYHYLWKNSNALRISSNDLLEILLKHGVYVSLDTLHSWLQERNVNFEK [A155D;E172A],disrupting interaction strength

# Variants of: B2
# Conditions: with cdc24_schpo cdc24, O75004
row,Variant,effect of a mutation on the interaction
1,MIESKGETAPSLNLNDVNVEENDAAQSFAEKVQRFRYQMKVHAAPRQKTLHSFLKKDNANIHDFTKVEKPHIRSSKSKVSYNSITSRVTKYFEEKNNSVDQLHSESLTPLSFGHTIPKKKPLLMTASVSEDSRVRVSKRQFKSKVVHPEIAISIAKRHKPKFPLSDELMNVEPGFHHSNIGCQITPYLWISSFRTNVYYLIGNEGDLLSQQVPSISGELNMLRGVCTRIDDDNRYDIEQAGSCFGMSVFPTSDSGEESFTTLESDPIVNCEHDEKKVADNLLVPQVMCAANASTAARSPGGKKLYHYLWKNSNALRISSNDLLEILLKHGVYVSLDTLHSWLQERNVNFEK [S289A;S290A;I292A;F295A;F296A],decreasing interaction strength
